Legend:
HLA-A*0201 [1] = biological target: HLA-A*0201 (human); test: cell-based or functional assay
HLA-A*0201 [2] = biological target: HLA-A*0201 (human); test: cell-based or functional assay; remark: listed apart in the source

Row | Binder | Competitor [µM] 50% (HLA-A*0201 [1]) [µM] | Relative competitor activity (HLA-A*0201 [1]) | Relative Competitor Activity, Exp3 (HLA-A*0201 [2])
1 | EVDPIGHLY [MAGE-3 TRAP 168-176 peptide EVDPIGHLY] | > 100 | < 0.6 ratio to SEQ ID NO: 2 | –
2 | ILTVILGVL [Melan-A 32-40 nonapeptide ILTVILGVL] | – | – | 2 ratio to SEQ ID NO: 2

— patent publication US20040152193A1 (LUDWIG INSTITUTE FOR CANCER RESEARCH, published 2004)
